The chains are these.
B1: R332S (protein)
chain: MQLRNPELHLGCALALRFLALVSWDIPGARALDNGLARTPTMGWLHWERFMCNLDCQEEPDSCISEKLFMEMAELMVSEGWKDAGYEYLCIDDCWMAPQRDSEGRLQADPQRFPHGIRQLANYVHSKGLKLGIYADVGNKTCAGFPGSFGYYDIDAQTFADWGVDLLKFDGCYCDSLENLADGYKHMSLALNRTGRSIVYSCEWPLYMWPFQKPNYTEIRQYCNHWRNFADIDDSWKSIKSILDWTSFNQERIVDVAGPGGWNDPDMLVIGNFGLSWNQQVTQMALWAIMAAPLFMSNDLRHISPQAKALLQDKDVIAINQDPLGKQGYQLSQGDNFEVWERPLSGLAWAVAMINRQEIGGPRSYTIAVASLGKGVACNPACFITQLLPVKRKLGFYEWTSRLRSHINPTGTVLLQLENTMQMSLKDLL
B2: D335V (protein)
chain: B1 chain with S332R, D335V
B3: N336T (protein)
chain: B1 chain with S332R, N336T
B4: N336D (protein)
chain: B1 chain with S332R, N336D
B5: N336I (protein)
chain: B1 chain with S332R, N336I
B6: Q333L (protein)
chain: B1 chain with S332R, Q333L
B7: D335Y (protein)
chain: B1 chain with S332R, D335Y
B8: N336Y (protein)
chain: B1 chain with S332R, N336Y
B9: R332T (protein)
chain: B1 chain with S332T
B10: D335E (protein)
chain: B1 chain with S332R, D335E
B11: Q333P (protein)
chain: B1 chain with S332R, Q333P
B12: N336S (protein)
chain: B1 chain with S332R, N336S
B13: G334V (protein)
chain: B1 chain with S332R, G334V
B14: Q333E (protein)
chain: B1 chain with S332R, Q333E
B15: G334R (protein)
chain: B1 chain with S332R, G334R
B16: D335G (protein)
chain: B1 chain with S332R, D335G
B17: F337C (protein)
chain: B1 chain with S332R, F337C
B18: D335A (protein)
chain: B1 chain with S332R, D335A

Positions count from the first letter of the chain named. Numbers in names are those of the source.

One assay deals with mutant form of α-Gal A expressed in HEK-293 cells. The experiment in a line: HEK assay (GLP HEK / Migalastat Amenability Assay): α-Gal A activity in lysates of transiently transfected HEK-293 cells incubated with or without 10 μM migalastat. In kind it is cell-based, human. Particulars: 10 μM migalastat versus baseline. A digest of the protocol:
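Activity reported as 4-MU released (nmol/mg/hr), mean±SEM, from lysates of transiently transfected HEK-293 cells expressing mutant α-Gal A, cultured with or without 10 μM migalastat.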
As for B1, the “Absolute increase (% WT)” value amounted to 20.5 % WT and the Relative increase came to 1.2.
For B2 the same measures were 19.4 % WT and 2.1.
The matching figures for B3: 29.7 % WT and 2.0.
For B4 the same measures were 34.3 % WT and 1.7.
For the molecule B5, the “Absolute increase (% WT)” value is listed as 23.0 % WT and the Relative increase was 2.1.
For B6 the same measures were 24.7 % WT and 1.3.
For B7 the same measures were 11.0 % WT and 1.3.
On to B8, for which the “Absolute increase (% WT)” value came to 16.6 % WT and the Relative increase was 1.3.
For the molecule B9, the “Absolute increase (% WT)” value came out at 36.2 % WT and the Relative increase is recorded as 1.5.
As for B10, the “Absolute increase (% WT)” value is reported as 17.7 % WT and the Relative increase is reported as 1.3.
With B11, the “Absolute increase (% WT)” value is listed as 31.0 % WT and the Relative increase is listed as 1.9.
For B12 the same measures were 18.7 % WT and 1.2.
Regarding B13, the “Absolute increase (% WT)” value stood at 13.7 % WT and the Relative increase amounted to 1.2.
Regarding B14, the “Absolute increase (% WT)” value amounted to 23.5 % WT and the Relative increase is 1.3.
Regarding B15, the “Absolute increase (% WT)” value is reported as 17.5 % WT and the Relative increase is recorded as 1.2.
In the case of B16, the “Absolute increase (% WT)” value is 15.7 % WT and the Relative increase turned out to be 1.3.
For B17 the same measures were 19.0 % WT and 1.9.
For B18 the same measures were 27.7 % WT and 1.6.

The assay is the same for the next values; noted with them: absence of migalastat; percentage of baseline wild-type α-Gal A activity; mean ± SEM.
Consider B1, for which the “Baseline α-Gal A activity (% WT)” value is given as 87.6 ± 6.6 % WT.
With B2, the “Baseline α-Gal A activity (% WT)” value stood at 18.1 ± 0.6 % WT.
On the same count and under the same terms, to B3 belongs 28.9 ± 1.3 % WT; to B4, 53.7 ± 2.8 % WT; to B5, 20.7 ± 2.7 % WT.
B6: the “Baseline α-Gal A activity (% WT)” value amounted to 68.6 ± 2.9 % WT.
On the same count and under the same terms, to B7 belongs 43 ± 1.7 % WT.
As for B8, the “Baseline α-Gal A activity (% WT)” value was 66.3 ± 3.7 % WT.
On the same count and under the same terms, to B9 belongs 73.3 ± 2.9 % WT; to B10, 68.7 ± 4.8 % WT.
For B11, the “Baseline α-Gal A activity (% WT)” value was 30.3 ± 1.7 % WT.
For the molecule B12, the “Baseline α-Gal A activity (% WT)” value came to 79.7 ± 3.8 % WT.
Consider B13, for which the “Baseline α-Gal A activity (% WT)” value turned out to be 68.4 ± 3.2 % WT.
The same measure, in the same setting: next, B14: 77.8 ± 5.3 % WT.
On to B15, for which the “Baseline α-Gal A activity (% WT)” value was determined as 58.9 ± 4.6 % WT.
In the case of B16, the “Baseline α-Gal A activity (% WT)” value is given as 51.3 ± 2.8 % WT.
On the same count and under the same terms, to B17 belongs 21.7 ± 0.8 % WT; to B18, 57.9 ± 3 % WT.

Staying with this assay, now noted: lysates of HEK-293 cells transiently transfected with the mutant form, incubated 5 days in absence of migalastat; mean ± SEM.
Take B1: the “Baseline α-Gal A activity” value was found to be 33936 ± 2528 nmol/mg/h.
Take B2: the “Baseline α-Gal A activity” value is 7938 ± 336 nmol/mg/h.
Consider B3, for which the “Baseline α-Gal A activity” value came out at 12743 ± 709 nmol/mg/h.
For B4, the “Baseline α-Gal A activity” value stood at 23869 ± 1072 nmol/mg/h.
Take B5: the “Baseline α-Gal A activity” value is 8544 ± 1083 nmol/mg/h.
For B6, the “Baseline α-Gal A activity” value was determined as 25450 ± 2094 nmol/mg/h.
Regarding B7, the “Baseline α-Gal A activity” value came out at 19469 ± 982 nmol/mg/h.
B8: the “Baseline α-Gal A activity” value worked out at 29615 ± 1640 nmol/mg/h.
As for B9, the “Baseline α-Gal A activity” value was determined as 26141 ± 1254 nmol/mg/h.
Take B10: the “Baseline α-Gal A activity” value worked out at 30532 ± 1962 nmol/mg/h.
On the same count and under the same terms, next, B11: 11819 ± 1039 nmol/mg/h; B12: 32974 ± 2396 nmol/mg/h.
For B13, the “Baseline α-Gal A activity” value is 31991 ± 2390 nmol/mg/h.
The same measure, in the same setting: next, B14: 30291 ± 2094 nmol/mg/h; B15: 25886 ± 3237 nmol/mg/h.
On to B16, for which the “Baseline α-Gal A activity” value was 22766 ± 1355 nmol/mg/h.
For B17, the “Baseline α-Gal A activity” value came out at 9557 ± 452 nmol/mg/h.
On the same count and under the same terms, to B18 belongs 21055 ± 1662 nmol/mg/h.

Staying with this assay, now noted: lysates of HEK-293 cells transiently transfected with the mutant form, incubated 5 days with 10 μM migalastat; mean ± SEM.
Regarding B1, the “10 μM migalastat α-Gal A activity” value is 41700 ± 2778 nmol/mg/h.
On to B2, for which the “10 μM migalastat α-Gal A activity” value was found to be 16557 ± 929 nmol/mg/h.
As for B3, the “10 μM migalastat α-Gal A activity” value turned out to be 25898 ± 1374 nmol/mg/h.
The same measure, in the same setting: to B4 belongs 39534 ± 2519 nmol/mg/h.
In the case of B5, the “10 μM migalastat α-Gal A activity” value worked out at 18303 ± 1404 nmol/mg/h.
As for B6, the “10 μM migalastat α-Gal A activity” value was determined as 33727 ± 1965 nmol/mg/h.
On the same count and under the same terms, to B7 belongs 24732 ± 2214 nmol/mg/h.
Turning to B8, the “10 μM migalastat α-Gal A activity” value came out at 37475 ± 2540 nmol/mg/h.
For the molecule B9, the “10 μM migalastat α-Gal A activity” value stood at 39363 ± 2176 nmol/mg/h.
On the same count and under the same terms, to B10 belongs 39124 ± 2722 nmol/mg/h.
Same read-out and setting: to B11 belongs 22746 ± 1255 nmol/mg/h; to B12, 40651 ± 2487 nmol/mg/h.
As for B13, the “10 μM migalastat α-Gal A activity” value was 38301 ± 2744 nmol/mg/h.
Still for that read-out and setting: next, B14: 38709 ± 2428 nmol/mg/h; B15: 31174 ± 2016 nmol/mg/h.
Still for that read-out and setting: to B16 belongs 30341 ± 3325 nmol/mg/h.
Same read-out and setting: to B17 belongs 17991 ± 960 nmol/mg/h; to B18, 33829 ± 4641 nmol/mg/h.

The same assay, now with this note: with 10 μM migalastat, 5 days; percentage of baseline wild-type α-Gal A activity; mean ± SEM.
B1: the “10 μM migalastat α-Gal A activity (% WT)” value is 108.1 ± 8.4 % WT.
Same read-out and setting: next, B2: 37.5 ± 1.6 % WT; B3: 58.6 ± 2.3 % WT; B4: 88.1 ± 4.9 % WT.
As to B5, the “10 μM migalastat α-Gal A activity (% WT)” value came to 43.8 ± 1.6 % WT.
In the case of B6, the “10 μM migalastat α-Gal A activity (% WT)” value is reported as 93.3 ± 4.1 % WT.
Same read-out and setting: to B7 belongs 54.1 ± 3.5 % WT.
On to B8, for which the “10 μM migalastat α-Gal A activity (% WT)” value came to 83 ± 4.4 % WT.
Turning to B9, the “10 μM migalastat α-Gal A activity (% WT)” value came out at 109.5 ± 4.7 % WT.
On the same count and under the same terms, to B10 belongs 86.5 ± 4.5 % WT.
On the same count and under the same terms, next, B11: 61.3 ± 3.9 % WT.
Still for that read-out and setting: to B12 belongs 98.4 ± 3.1 % WT; to B13, 82.1 ± 3.8 % WT.
Regarding B14, the “10 μM migalastat α-Gal A activity (% WT)” value was determined as 101.3 ± 7.6 % WT.
Same read-out and setting: next, B15: 76.4 ± 2.7 % WT; B16: 67 ± 5.6 % WT; B17: 40.7 ± 1.6 % WT.
B18: the “10 μM migalastat α-Gal A activity (% WT)” value is given as 85.6 ± 6.9 % WT.

The values are drawn from patent US11833164B2, “Methods of treating Fabry disease in patients having a mutation in the GLA gene” (Amicus Therapeutics, Inc., priority 2019, dated 2023).
